Results reported in US20250121087A1, “ANTIBODY-DRUG CONJUGATES COMPRISING ANTI-B7-H3 ANTIBODIES” (priority 2020, published 2025).

T1: B7-H3 (Homo sapiens, UniProt Q5ZPR3)
T1 sequence (Q5ZPR3 29-534): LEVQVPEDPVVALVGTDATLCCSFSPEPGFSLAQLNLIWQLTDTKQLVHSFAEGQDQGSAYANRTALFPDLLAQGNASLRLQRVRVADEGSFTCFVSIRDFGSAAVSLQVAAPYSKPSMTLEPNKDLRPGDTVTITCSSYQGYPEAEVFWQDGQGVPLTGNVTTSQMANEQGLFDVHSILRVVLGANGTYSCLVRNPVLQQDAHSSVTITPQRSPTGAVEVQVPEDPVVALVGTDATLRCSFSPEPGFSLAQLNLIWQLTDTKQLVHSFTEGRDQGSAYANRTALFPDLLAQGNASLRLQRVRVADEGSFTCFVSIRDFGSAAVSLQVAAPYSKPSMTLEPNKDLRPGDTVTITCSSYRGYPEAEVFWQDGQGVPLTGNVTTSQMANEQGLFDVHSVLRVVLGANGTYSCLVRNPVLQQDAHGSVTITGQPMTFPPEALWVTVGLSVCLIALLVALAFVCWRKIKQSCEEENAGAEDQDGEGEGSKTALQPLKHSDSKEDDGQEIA

T2: human 4Ig B7-H3 (Homo sapiens, UniProt Q5ZPR3)
T2 construct: purchased Y-Biologics Inc
T2 sequence (Q5ZPR3 29-534): T1 sequence (Q5ZPR3 29-534)

T3: human 2Ig B7-H3 (Homo sapiens, UniProt Q5ZPR3)
T3 construct: purchased Acrobiosystems
T3 sequence (Q5ZPR3 29-316 isoform Q5ZPR3-2 limits assumed): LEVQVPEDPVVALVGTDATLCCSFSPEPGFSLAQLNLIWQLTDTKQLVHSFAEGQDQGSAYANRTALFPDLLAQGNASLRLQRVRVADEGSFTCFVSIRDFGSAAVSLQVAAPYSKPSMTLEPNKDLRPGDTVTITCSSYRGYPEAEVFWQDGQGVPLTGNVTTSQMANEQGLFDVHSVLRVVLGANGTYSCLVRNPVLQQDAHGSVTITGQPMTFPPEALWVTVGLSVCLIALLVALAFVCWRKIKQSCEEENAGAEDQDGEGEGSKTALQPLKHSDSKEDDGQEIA

T4: mouse B7-H3 (Mus musculus, UniProt Q8VE98)
T4 construct: purchased Sino biological Inc
T4 sequence (Q8VE98 29-316): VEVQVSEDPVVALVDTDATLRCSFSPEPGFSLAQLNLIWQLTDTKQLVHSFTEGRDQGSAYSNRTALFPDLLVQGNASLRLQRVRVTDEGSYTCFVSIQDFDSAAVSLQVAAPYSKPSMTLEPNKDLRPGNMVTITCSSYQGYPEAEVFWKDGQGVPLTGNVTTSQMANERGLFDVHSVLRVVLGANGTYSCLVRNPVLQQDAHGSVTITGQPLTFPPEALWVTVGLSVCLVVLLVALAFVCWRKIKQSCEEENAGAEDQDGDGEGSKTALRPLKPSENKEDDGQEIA

B1: Enoblituzumab (antibody, chains of the INN, looked up)
heavy: EVQLVESGGGLVQPGGSLRLSCAASGFTFSSFGMHWVRQAPGKGLEWVAYISSDSSAIYYADTVKGRFTISRDNAKNSLYLQMNSLRDEDTAVYYCGRGRENIYYGSRLDYWGQGTTVTVSSASTKGPSVFPLAPSSKSTSGGTAALGCLVKDYFPEPVTVSWNSGALTSGVHTFPAVLQSSGLYSLSSVVTVPSSSLGTQTYICNVNHKPSNTKVDKRVEPKSCDKTHTCPPCPAPELVGGPSVFLLPPKPKDTLMISRTPEVTCVVVDVSHEDPEVKFNWYVDGVEVHNAKTKPPEEQYNSTLRVVSVLTVLHQDWLNGKEYKCKVSNKALPAPIEKTISKAKGQPREPQVYTLPPSREEMTKNQVSLTCLVKGFYPSDIAVEWESNGQPENNYKTTPLVLDSDGSFFLYSKLTVDKSRWQQGNVFSCSVMHEALHNHYTQKSLSLSPG
light: DIQLTQSPSFLSASVGDRVTITCKASQNVDTNVAWYQQKPGKAPKALIYSASYRYSGVPSRFSGSGSGTDFTLTISSLQPEDFATYYCQQYNNYPFTFGQGTKLEIKRTVAAPSVFIFPPSDEQLKSGTASVVCLLNNFYPREAKVQWKVDNALQSGNSQESVTEQDSKDSTYSLSSTLTLSKADYEKHKVYACEVTHQGLSSPVTKSFNRGEC
B2: AB2 (antibody, V domains shown)
VH: QVQLVESGAEVKKPGASVKLSCKASGYTFSSYWMHWVRQAPGQRLEWMGEINPGNGHTNYNEKFKSRVTITVDKSASTAYMELSSLRSEDTAVYYCVADPRRPKVPTALFVYWGQGTLVTVSS
VL: DIQMTQSPSSVSASVGDRVTISCRASQGIGTWLAWYQQKPGKAPRLLIYAASSLDSGVPSRFSASGSGTDFTLTISSLQPEDFATYYCQQAINFPITFGQGTRLEIK

Columns and labels:
[1] = target: T1, B7-H3; details: Table 1, development state of B7-H3 ADC; cited from earlier work
[2] = target: T2, human 4Ig B7-H3; assay: Biacore (SPR) binding kinetics, human 4Ig B7-H3; details: analyte Human 4IgB7-H3, antibody as immobilized ligand
Procedure: (§1) The binding affinity of the purified anti-B7-H3 monoclonal antibodies was determined by BLI-based OCTET or SPR-based Biacore. Further the binding kinetics of the antibodies binding to human, cynomolgus monkey and mouse B7-H3 antigen are shown in Table 37.
(§2) A Biacore 8K (GE Life science) instrument was used to measure the binding kinetics about several B7-H3 variants (analyte) binding to various mAbs (ligands). Antibodies were captured onto the immobilized anti-human Fc antibody (GE Life science). Anti-Fc antibodies were immobilized to approximately 7,000 RU on CM5 sensor chip using a standard amine coupling method on both active cell and reference cell. For binding kinetic measurements, the HBS-EP+ was used for running buffer (10 mM Hepes, pH7.4, 150 mM NaCl, 3 mM EDTA, 0.05% polysorbate20). Anti-B7-H3 antibodies were diluted to 0.5 ug/mL in running buffer and injected for 110 s on active cells only. After capturing ligand, various B7-H3 antigens were analyzed for 120 s and the dissociation was monitored for 600 s at a flow rate of 30 ul/min. […] Kinetic information was calculated by fitting data to a 1:1 binding model using Biacore Insight Evaluation software (GE Life Science) to determine ka (association constant), kd (dissociation constant), and KD (equilibrium dissociation constant).

[3] = target: T3, human 2Ig B7-H3; assay: Biacore (SPR) binding kinetics, human 2Ig B7-H3; details: analyte Human 2IgB7-H3, antibody as immobilized ligand
Procedure: as §1, §2

[4] = tested on: cynomolgus monkey B7-H3; assay: Biacore (SPR) binding kinetics, cynomolgus monkey B7-H3; details: analyte Cyno B7-H3, antibody as immobilized ligand
Procedure: as §1, §2

[5] = target: T4, mouse B7-H3; assay: Biacore (SPR) binding kinetics, mouse B7-H3; details: analyte Mouse B7-H3, antibody as immobilized ligand
Procedure: as §1, §2

| Molecule | Kd [1] | Ka [2] | Kd [2] | Ka [3] | Kd [3] | Ka [4] | Kd [4] | Ka [5] | Kd [5] |
| --- | --- | --- | --- | --- | --- | --- | --- | --- | --- |
| B1 | 7 nM |  |  |  |  |  |  |  |  |
| B2 |  | 446000 M⁻¹ s⁻¹ | 0.000199 s⁻¹ | 206000 M⁻¹ s⁻¹ | 0.00515 s⁻¹ | 481000 M⁻¹ s⁻¹ | 0.000442 s⁻¹ | 408000 M⁻¹ s⁻¹ | 0.0193 s⁻¹ |
